Data set [1] in a line: folding stability dG unfold from trypsin proteolysis; higher = more stable. The method, boiled down:
(§1)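 How resistant each design was to proteolysis was captured as K50, inferred by Bayesian fitting of sequencing counts. Unfolding free energy was then derived relative to a sequence-predicted unfolded-state K50 and a shared folded-state K50, per protease or combined. Digestion used trypsin and chymotrypsin at 11 threefold-diluted concentrations plus a no-protease condition, on mini-proteins under 80 residues without cysteine in a PA-tagged cDNA display construct. Designs were kept only when AlphaFold2 dimer inter-PAE was above 15.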

Data set [2] is described as follows: folding stability dG unfold from chymotrypsin proteolysis; higher = more stable. The method in brief:
as §1

A short description of data set [3]: folding stability dG unfold (combined trypsin and chymotrypsin); higher = more stable. The method, boiled down: as §1

± gives the half width of the 95% confidence interval.

With “SALIETAEELARELGVEAELVEIEEGEDVALLRIRLRVDGVPYYFLVRIERPGEDPRIFRVEILEVRPESAG [r14_387_TrMRF]”, the “folding stability dG unfold” value in data set [1] was 3.67 ± 0.071 kcal/mol; in data set [2] it was 4.302 ± 0.034 kcal/mol; in data set [3] it was 4.066 ± 0.031 kcal/mol.
Regarding “SALKGLKITEIKEVTNEDGSKSLVVRVDGYLLVFDLDTKKLTLVPLPPVTVTVTVYEKKADPNKPEYKKKSA [r9_1065_TrROS_Hall]”, the results for the “folding stability dG unfold” value in data set [1], in data set [2] and in data set [3] were 1.71 ± 0.042 kcal/mol, 3.15 ± 0.056 kcal/mol and 2.77 ± 0.16 kcal/mol, respectively.
Take “SALKISVTVDPDGPTATATLELYNPETGKPTTLTATIHRLPDGSYLVTIHFPSNNKTITFTVPEDGVITLSA [r9_1220_TrMRF]”: the figures for the “folding stability dG unfold” value in data set [1], in data set [2] and in data set [3] were 2.38 ± 0.09 kcal/mol, 3.48 ± 0.038 kcal/mol and 3.03 ± 0.12 kcal/mol, respectively.
Consider “SALPNLKIEITLNEDGTITITVTANGEVIATATLTVTLPPPPVEKEVLDANGNKRTVRYDAKTGKAEVFDSA [r9_343_TrROS_Hall]”, for which the results for the “folding stability dG unfold” value in data set [1], in data set [2] and in data set [3] were 0.106 ± 0.17 kcal/mol, 0.065 ± 0.29 kcal/mol and 0.0728 ± 0.47 kcal/mol, respectively.
For the sequence “SALTLEELEKRYPELPSELLEKIKEEAEKVPKDRTLTFLLTAPDGRRVRITVTKPDTVTVTVLPPGVPEASA [r9_1024_JUSTAS]”, the “folding stability dG unfold” value came to 4.13 ± 0.3 kcal/mol in data set [1], 4.12 ± 0.094 kcal/mol in data set [2] and 4.14 ± 0.14 kcal/mol in data set [3].
The corresponding values for “SALWVIKDTIKPPNGKKRKISIAIPNDGLYVWFNGGSFPIPLKEIKKIMENFPGYQIDDIEIMPLDELKSAG [r14_336_TrROS]” are 0.798 ± 0.19 kcal/mol, -0.15 ± 0.53 kcal/mol and 0.448 ± 0.32 kcal/mol.
Turning to “SAMDLLRERGYDVEEVTKLRDEVLPNGTIVTLYEVTVRLPDRVITTPIKVSGESEEEAEKLAYETVARESAG [r14_726_JUSTAS]”, the “folding stability dG unfold” value in data set [1] was determined as 0.49 ± 0.031 kcal/mol; in data set [2] it was 0.582 ± 0.071 kcal/mol; in data set [3], 0.543 ± 0.069 kcal/mol.
Consider “SAMEIEKIEIEKEEVNGKLYYRIRVKIINKETGKEIELELEFKSLEDALEALKKLPNITRVEITEIEPVSAG [r14_464_TrROS_Hall]”, for which the “folding stability dG unfold” value in data set [1] worked out at 3.55 ± 0.11 kcal/mol; in data set [2] it was 5.18 ± 0.091 kcal/mol; in data set [3], 4.93 ± 0.093 kcal/mol.
Take “SAMEIVIEFESPEEAEKAIKEYVEKKGLKAVEIKMEFEPKWVEEKTPTGVKVTKEKYVAKVTVVTSKELSAG [r14_773_JUSTAS]”: the “folding stability dG unfold” value in data set [1] was 0.457 ± 0.21 kcal/mol; in data set [2], 2.03 ± 0.095 kcal/mol; in data set [3] it was 1.28 ± 0.32 kcal/mol.
Regarding “SAMELSPEERAELLIEAVRRKLEEARKKGIPNKKVKVTIVLSEEEREALAKRIEEELKEEGYEVEIVPESAG [r14_908_TrROS_Hall]”, the figures for the “folding stability dG unfold” value in data set [1], in data set [2] and in data set [3] were 2.17 ± 0.068 kcal/mol, 2.61 ± 0.13 kcal/mol and 2.29 ± 0.17 kcal/mol, respectively.
On to “SAMEVKIEKVEVKDGTVRITVTVKVSEEQLEKVKELAEKLKEKGYEVKVVKVEKLEDGTIKVEIEVKPKSAG [r14_354_TrROS_Hall]”, for which the “folding stability dG unfold” value in data set [1] is 2.7 ± 0.32 kcal/mol; in data set [2] it was 2.36 ± 0.17 kcal/mol; in data set [3], 2.66 ± 0.92 kcal/mol.
Regarding “SAMIEIEAVFPPNVSLEEAVEAVKAEIESKGFEILEVKVEKLPNGEVLVRAVVKVKPEMPPEEIKKLAESAG [r14_110_TrMRF]”, the results for the “folding stability dG unfold” value in data set [1], in data set [2] and in data set [3] were 1.5 ± 0.06 kcal/mol, 2.44 ± 0.2 kcal/mol and 2.07 ± 0.19 kcal/mol, respectively.
With “SAMIEIEIEVEEREDGRLIVRVRIRNKETGEEIELELEMSREEVEKLLEELKKLFPNLEIVEVEIRELPSAG [r14_969_TrROS_Hall]”, the “folding stability dG unfold” value in data set [1] amounted to 4 ± 0.15 kcal/mol; in data set [2], 3.29 ± 0.24 kcal/mol; in data set [3], 3.98 ± 0.45 kcal/mol.
“SAMIEILSIEEFTRPDGKKLYKITLKTPDPEKVLEKLIELGVKPEIDPNNPDILIAVFPYEKIEEILKESAG [r14_777_TrMRF]”: the “folding stability dG unfold” value in data set [1] turned out to be 3.12 ± 0.14 kcal/mol; in data set [2] it was 5.05 ± 0.23 kcal/mol; in data set [3], 4.77 ± 0.31 kcal/mol.
In the case of “SAMIMIRVEYPNGKTWPIMIPLRTPDGDPTKEEVEEIAERIADEIAEEHGGDNVKIEIQVMPMPPEENPSAG [r14_378_TrROS]”, the figures for the “folding stability dG unfold” value in data set [1], in data set [2] and in data set [3] were 2.23 ± 0.081 kcal/mol, 1.5 ± 0.12 kcal/mol and 1.82 ± 0.24 kcal/mol, respectively.
In the case of “SAMIVVEIEESRSPTSPERTVTVTVKKPDGTVVKTIPITVSGANPSATPEEVRALAEPIVEELVKKGLLSAG [r14_120_JUSTAS]”, the “folding stability dG unfold” value in data set [1] worked out at 1.44 ± 0.026 kcal/mol; in data set [2], 1.47 ± 0.045 kcal/mol; in data set [3], 1.55 ± 0.13 kcal/mol.
The corresponding values for “SAMKAEVYILVYDKNGKLIAKIPIKAEEVLEDPEKFLETVKTVVEEFSGIGVKLKIYFPSTGKEVEIEASAG [r14_972_TrMRF]” are 4.2 ± 0.65 kcal/mol, 3.35 ± 0.045 kcal/mol and 3.6 ± 0.23 kcal/mol.
Regarding “SAMKEGEEYEPVEKKKITIKNKKTNKTIEIEVVRNKKTNKYIVKITTKDGKKIEIVVSKEELEKLLKKLSAG [r14_240_TrROS_Hall]”, the “folding stability dG unfold” value in data set [1] stood at 2.25 ± 0.19 kcal/mol; in data set [2], 3.08 ± 0.17 kcal/mol; in data set [3] it was 3.01 ± 0.26 kcal/mol.
With “SAMKETEIPDPVTGNTYTVIDFDDATVVIKNYPDSLTITIIPPPSNTSTTIPMKPGEEEKVLKELGIPPSAG [r14_4_JUSTAS]”, the entries for the “folding stability dG unfold” value in data set [1], in data set [2] and in data set [3] were 0.591 ± 0.087 kcal/mol, 0.316 ± 0.23 kcal/mol and 0.568 ± 0.16 kcal/mol, respectively.
“SAMKIEIIEEKEGEIIIKIEATKEEVEELAEELKKKFPGVEVEVEYDKETKKVYIRIKFKKKPSEEELKSAG [r14_600_TrROS_Hall]”: the “folding stability dG unfold” value was found to be 3.05 ± 0.62 kcal/mol in data set [1], 3.9 ± 0.33 kcal/mol in data set [2] and 3.82 ± 0.31 kcal/mol in data set [3].
For “SAMKITDVTVERNPDNGWYEVMVTFEFDNGPVTVKIWMPRDGNMPIDVYDMGNGEPKGEIWIPADQIKFSAG [r14_608_TrROS]”, the “folding stability dG unfold” value in data set [1] is 0.893 ± 0.022 kcal/mol; in data set [2], 1.35 ± 0.1 kcal/mol; in data set [3], 1.15 ± 0.075 kcal/mol.
Take “SAMKITIEEVEVKEGDTVTIRIDASEEELENFLKELAEKLGAEVVEVEVKKNENGSLEVTVKVKEVKKPSAG [r14_655_TrROS_Hall]”: the “folding stability dG unfold” value worked out at 1.2 ± 0.11 kcal/mol in data set [1], 0.476 ± 0.13 kcal/mol in data set [2] and 1.04 ± 0.17 kcal/mol in data set [3].
Regarding “SAMKITIEVIKLPDGYYVVRITVYDKNGEKVEERELVFSSLEDLLAALKELFPDQKVTVEIRKVTKEELSAG [r14_964_TrROS_Hall]”, the “folding stability dG unfold” value in data set [1] came to 2.16 ± 0.16 kcal/mol; in data set [2] it was 4.14 ± 0.23 kcal/mol; in data set [3], 3.77 ± 0.18 kcal/mol.
On to “SAMKIVEIVEYDKEKKKIRIKIEVNGKLLEIEIEAESEEEVEEALKKLKEELEFELPDGKKVRITEIEISAG [r14_422_TrROS_Hall]”, for which the entries for the “folding stability dG unfold” value in data set [1], in data set [2] and in data set [3] were 0.749 ± 0.15 kcal/mol, 2.08 ± 0.14 kcal/mol and 1.63 ± 0.28 kcal/mol, respectively.
As for “SAMKKLTEEEIEKLAKELAKEGKVEIKIKVEKKVVKNKNGKKKEVTKVKIEIKAPPEAKKKLEKLKKKLSAG [r14_628_TrROS_Hall]”, the results for the “folding stability dG unfold” value in data set [1], in data set [2] and in data set [3] were 0.415 ± 0.34 kcal/mol, 0.992 ± 0.19 kcal/mol and 0.359 ± 0.79 kcal/mol, respectively.
For “SAMKKPPKTLTLVIVVKVPEEEMTEEQLEELARELAEALAPPGEKVEVKVEVERLPDGTVVVKIEIKLESAG [r14_389_TrROS_Hall]”, the “folding stability dG unfold” value in data set [1] was 2.28 ± 0.091 kcal/mol; in data set [2], 1.98 ± 0.067 kcal/mol; in data set [3], 2.22 ± 0.17 kcal/mol.
The corresponding values for “SAMKLTTLSESSDPATGVRYLTVAIPSSQDDLIKEIAEELEKKGVKATILTPNVPAGSSVTIKLEFKGKSAG [r14_354_JUSTAS]” are 0.109 ± 0.17 kcal/mol, 0.66 ± 0.16 kcal/mol and 0.475 ± 0.17 kcal/mol.
On to “SAMKLVTLEDGTVIETENLSLEEIKERFGGGSISVSDVPPSPAFRVESEEEREALEKEVGPGFVVVEEGSAG [r14_445_JUSTAS]”, for which the figures for the “folding stability dG unfold” value in data set [1], in data set [2] and in data set [3] were 0.578 ± 0.032 kcal/mol, 0.108 ± 0.11 kcal/mol and 0.414 ± 0.082 kcal/mol, respectively.
As to “SAMKVTIEPLEDGSTVITLDDGTEITFSAPGSGAPILAKVTPLPNTGVVRVDIYHPEGGKLLAPLVVPLSAG [r14_975_TrMRF]”, the “folding stability dG unfold” value in data set [1] was 0.657 ± 0.034 kcal/mol; in data set [2] it was 0.579 ± 0.094 kcal/mol; in data set [3] it was 0.734 ± 0.053 kcal/mol.
The like results for “SAMKYLVEVTADLGGPSVRYELDAESIEEAIEKVKEKLKPLFPDAPLKNITLTFHDPSSDETTTVNIVESAG [r14_54_JUSTAS]” were, in that order, 3.36 ± 0.067 kcal/mol, 3.54 ± 0.031 kcal/mol and 3.49 ± 0.062 kcal/mol.
For the sequence “SAMKYTITVKGDIESVRNFLLDKLDFDIEVSSTPDGTTVITITMDEEKVSELKELLKAHPNFPTTVNKESAG [r14_521_JUSTAS]”, the entries for the “folding stability dG unfold” value in data set [1], in data set [2] and in data set [3] were 2.75 ± 0.086 kcal/mol, 4.12 ± 0.044 kcal/mol and 3.83 ± 0.11 kcal/mol, respectively.
The like results for “SAMLPEGERKPFLVKVKIETPEGTPEFEAPVITEPPQKIHVSIDFDIPEGEHKIKIEFFGPKLEFEFDISAG [r14_280_TrMRF]” were, in that order, 1.87 ± 0.11 kcal/mol, 2.42 ± 0.12 kcal/mol and 2.29 ± 0.44 kcal/mol.
Consider “SAMMTPEERAFVERLRALFAERGGRIEIRFFEEPDRIEILVEEDDPELIREIREELARIPFPISRIVEESAG [r14_284_TrMRF]”, for which the entries for the “folding stability dG unfold” value in data set [1], in data set [2] and in data set [3] were 2.434 ± 0.016 kcal/mol, 3.695 ± 0.012 kcal/mol and 3.33 ± 0.04 kcal/mol, respectively.
On to “SAMMVVYYDPETGELVLVDPSEIPPELVEKGIEPVRLVPLRILVEVESEEEAEELARLFPDLVEVSLNPSAG [r14_638_TrMRF]”, for which the “folding stability dG unfold” value worked out at 1.97 ± 0.045 kcal/mol in data set [1], 1.83 ± 0.032 kcal/mol in data set [2] and 1.88 ± 0.098 kcal/mol in data set [3].
On to “SAMPAENMTPEEAAELALAYVERFRAEVEALGGPIPADTEIVVPVTLEGPPVEIKITFINPDEVEVEVASAG [r14_501_TrMRF]”, for which the figures for the “folding stability dG unfold” value in data set [1], in data set [2] and in data set [3] were 1.46 ± 0.15 kcal/mol, 1.17 ± 0.09 kcal/mol and 1.34 ± 0.17 kcal/mol, respectively.

Values taken from the supplement of paper PMC12764529.
